Here are results for six variants from PMC9839372 (2023).

First the molecules themselves.
B1: GFP-tagged PRR14 (1-212) wild-type fragment [human] / Heterochromatin Protein 1 beta (HP1β) [human (endogenous in Lenti-X 293T)] (parent complex)
chain 1: MDLPGDSSPPGQPRLCRQPLTRALWGARSPKRPRLQLPGAPSPLEKASRRVLAVVLEDVMAVHMVPVVPSKQTSIPQHHSYHQDPVHRQPPASPPRQAGWSSQARPPDPLCLCREPLSRIHRTSSTLRRRSRTTPGPEEGPSQKVDRAPQPTLVVMLEDIASPRPPAEGFIDETPNFIIPAQRAEPMRIVRQPTPPPGDLEPPFQPSALPAD
chain 2: not shown
B2: GFP-tagged PRR14 (1-212) wild-type fragment [human] / Heterochromatin Protein 1 gamma (HP1γ) [human (endogenous in Lenti-X 293T)] (parent complex)
chain 1: B1 chain 1
chain 2: not shown

The variants in the first experiment derive from B1. Nature of the experiment: co-immunoprecipitation (anti-GFP IP) with Western blot, band intensity quantified; lysates of 293T cells expressing GFP-PRR14 (1-212) constructs; n = 3 independent immunoprecipitations; parent: 91; read off a plot.
In the case of chain 1 V154E, chain 1 V155E, the response is ~91.

Turning to chain 1 V54E, chain 1 V55E, chain 1 V154E, chain 1 V155E, the response is ~43.

With chain 1 V54E, chain 1 V55E, the response is ~35.

The next experiment covers variants of B2. Briefly: co-immunoprecipitation (anti-GFP IP) with Western blot, band intensity quantified; lysates of 293T cells expressing GFP-PRR14 (1-212) constructs; n = 3 independent immunoprecipitations; parent: 95; read off a plot. Background: In western blotting, separated proteins are transferred to a membrane and probed.
Regarding chain 1 V54E, chain 1 V55E, the response is ~17.

chain 1 V154E, chain 1 V155E: the response was ~95.

On to chain 1 V54E, chain 1 V55E, chain 1 V154E, chain 1 V155E, for which the response is ~6.
